Laboratory results taken from the supplement of paper PMC12764529.
± gives the half width of the 95% confidence interval.

What was measured:
[1] = folding stability dG unfold from chymotrypsin proteolysis; higher = more stable
Description: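 Folding stability of de novo designed mini-proteins (<80 aa, no Cys; designed by TrROS, TrMRF, ProteinMPNN and the joint model) was measured by cDNA display proteolysis with trypsin and chymotrypsin. Each protease was used at 11 concentrations in a threefold dilution series plus a no-protease condition. K50 was inferred by Bayesian fitting of sequencing counts, and dG unfold was derived against a sequence-predicted unfolded-state K50 (Tsuboyama et al. method). Sequences shown include variable-length N-terminal GS-type padding (SAGGSAGG...) inside a display construct carrying a PA tag. Rows were kept only if the AF2 dimer inter-PAE was >15, to exclude likely homo-oligomers.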

[2] = folding stability dG unfold (combined trypsin and chymotrypsin); higher = more stable
Outline: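 K50 was inferred by Bayesian fitting of sequencing counts obtained after protease digestion of designed mini-proteins. Unfolding free energy was derived by comparison with a sequence-predicted unfolded-state K50 and a shared folded-state K50, for each protease or both combined. The mini-proteins were under 80 residues, had no cysteine, were carried in a PA-tagged cDNA display construct, and were kept only if AlphaFold2 dimer inter-PAE exceeded 15.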

SAGGSAGGSAGGSPVIFVDPVEGRARVLLAAPAPNPDGEPGGLGLAEVEFEVGDVRLLLSAGGSAGGSAGGS [r4_10_TrMRF]
folding stability dG unfold [1]: 0.753 ± 0.075 kcal/mol | folding stability dG unfold [2]: -0.00848 ± 0.12 kcal/mol

SAGGSAGGSAGGSSMLTTRPLPGGRTLLRTTLPDGTILVTRYDAAGEPVLETLPPSTPLLSAGGSAGGSAGG [r7_215_JUSTAS]
folding stability dG unfold [1]: 0.102 ± 0.27 kcal/mol | folding stability dG unfold [2]: < -1 kcal/mol

SAGGSAGGSAGGSSTITLDPANPTVVTDPATGVPTTGVSLAELEKLGMKPAGPDAYVVLSAGGSAGGSAGGS [r4_306_JUSTAS]
folding stability dG unfold [1]: 0.289 ± 0.18 kcal/mol | folding stability dG unfold [2]: < -1 kcal/mol

SAGGSAGGSAGGSSVYTSPSKPIAITSRTLVPESNLVRVEAVDPSGAPIEGIIPPSATLGSAGGSAGGSAGG [r7_427_JUSTAS]
folding stability dG unfold [1]: -0.114 ± 0.27 kcal/mol | folding stability dG unfold [2]: < -1 kcal/mol

SAGGSAGGSAGGSTVTVTSEEEAQEAREALAAERAAAEPGAEPPEAFPVEVEVVPPELRSAGGSAGGSAGGS [r4_498_JUSTAS]
folding stability dG unfold [1]: 0.633 ± 0.047 kcal/mol | folding stability dG unfold [2]: 0.0161 ± 0.22 kcal/mol

SAGGSAGGSAGGVRIPPGHWKHRLGFPNGKENEFNIPPGAPIEIPPNADDVKIQEIEPVPSAGGSAGGSAGG [r7_542_TrROS]
folding stability dG unfold [1]: -0.251 ± 0.36 kcal/mol | folding stability dG unfold [2]: < -1 kcal/mol

SAGGSAGGSAGGVTVSPEEYLATFPPGLTLRDSAGNLHELGDRAPVDPAAPVTLLSPEELSAGGSAGGSAGG [r7_507_JUSTAS]
folding stability dG unfold [1]: 0.464 ± 0.039 kcal/mol | folding stability dG unfold [2]: -0.18 ± 0.12 kcal/mol

SAGGSAGGSAGKKKVLILGGDAVATAKELKKLGEDVEVEVLESGEDLEEHLKNYDLVLSGSAGGSAGGSAGG [r17_225_TrMRF]
folding stability dG unfold [1]: 0.344 ± 0.14 kcal/mol | folding stability dG unfold [2]: 0.106 ± 0.27 kcal/mol

SAGGSAGGSAGKKTLYVIKIELSDEQLKEAKKEGKPLKLKAEIVEVKPVKVEVKKEYKKESAGGSAGGSAGG [r11_26_TrROS_Hall]
folding stability dG unfold [1]: 0.586 ± 0.31 kcal/mol | folding stability dG unfold [2]: -0.167 ± 0.56 kcal/mol

SAGGSAGGSAGMETRLIAVLEDGEAVFEDGGTLITVPADEDVADIPDGGGLGTIYIPKDGSAGGSAGGSAGG [r11_647_TrMRF]
folding stability dG unfold [1]: 0.53 ± 0.036 kcal/mol | folding stability dG unfold [2]: -0.0625 ± 0.17 kcal/mol

SAGGSAGGSAGMGSTSTSTSITPTPEGRIVVDTTTTFTDPGGVPVGSTTTTTTLPPGAAASAGGSAGGSAGG [r11_898_JUSTAS]
folding stability dG unfold [1]: 0.242 ± 0.066 kcal/mol | folding stability dG unfold [2]: -0.279 ± 0.16 kcal/mol

SAGGSAGGSAGMKDNLVVTRTYTLPDDTVLVTRATFDSNPELVTVDVTEVPLSDVAPDAVSAGGSAGGSAGG [r11_493_TrMRF]
folding stability dG unfold [1]: 0.514 ± 0.11 kcal/mol | folding stability dG unfold [2]: -0.0312 ± 0.14 kcal/mol

SAGGSAGGSAGMKVIVLPVPPNADRVRITYEKGPTLEIEAREDEPVVIVAPENEFTVEVDSAGGSAGGSAGG [r11_52_TrMRF]
folding stability dG unfold [1]: -0.383 ± 0.28 kcal/mol | folding stability dG unfold [2]: < -1 kcal/mol

SAGGSAGGSAGMLSVTELSTEEKGSLVTTTTRATVGSTTVTTTTTTFVPRSTALLNPDRGSAGGSAGGSAGG [r11_213_JUSTAS]
folding stability dG unfold [1]: 0.55 ± 0.089 kcal/mol | folding stability dG unfold [2]: -0.0509 ± 0.48 kcal/mol

SAGGSAGGSAGMRLLTEEIVVEQFFYETGETRLTVLTKEILVVPPRPVPVPLPEGGLRLLSAGGSAGGSAGG [r11_307_JUSTAS]
folding stability dG unfold [1]: 0.925 ± 0.11 kcal/mol | folding stability dG unfold [2]: 0.184 ± 0.13 kcal/mol

SAGGSAGGSAGMVIPSTSPEEAVEKLRELVEKRGDFLVDVKPTEVHPDGTVVIETKKKPLSAGGSAGGSAGG [r17_430_JUSTAS]
folding stability dG unfold [1]: 0.21 ± 0.09 kcal/mol | folding stability dG unfold [2]: -0.269 ± 0.21 kcal/mol

SAGGSAGGSAGMVTEESLEIEPGKGLIVRTVTDRRESGIVTETEKTPVSEAEREAIRKALSAGGSAGGSAGG [r11_47_JUSTAS]
folding stability dG unfold [1]: 0.0861 ± 0.056 kcal/mol | folding stability dG unfold [2]: -0.201 ± 0.11 kcal/mol

SAGGSAGGSAGNISSLPPTPITGSSLKRFVVKRPDGTEEEVTLEITYYPETGKEIISTIKSAGGSAGGSAGG [r11_1024_JUSTAS]
folding stability dG unfold [1]: 0.107 ± 0.31 kcal/mol | folding stability dG unfold [2]: -0.0512 ± 0.21 kcal/mol

SAGGSAGGSAGPDVEVVIIPVDPETGEPLDALPIPIPSPEGGLVDEIVKAIPPDRYRVLASAGGSAGGSAGG [r17_339_TrMRF]
folding stability dG unfold [1]: -0.336 ± 0.45 kcal/mol | folding stability dG unfold [2]: < -1 kcal/mol

SAGGSAGGSAGPMYKLKAELNNKPFEVMINPDMPPDDQIYIRDPGEWIEFNIENMKVEPVSAGGSAGGSAGG [r11_247_TrROS]
folding stability dG unfold [1]: 0.298 ± 0.21 kcal/mol | folding stability dG unfold [2]: -0.0971 ± 0.14 kcal/mol

SAGGSAGGSAGPRRFMFQIPADEVKLEFPGGAKVTDVEEDPDGYRRVMIEIPPGADPELKSAGGSAGGSAGG [r17_48_TrROS]
folding stability dG unfold [1]: 0.142 ± 0.32 kcal/mol | folding stability dG unfold [2]: -0.129 ± 0.2 kcal/mol

SAGGSAGGSAGQPKPLPGGGEVKVEVYPPNNGKKKKFEIPPNEPDWIKELAKPGYSVHIESAGGSAGGSAGG [r11_1006_TrROS]
folding stability dG unfold [1]: 0.0183 ± 0.089 kcal/mol | folding stability dG unfold [2]: -0.677 ± 0.43 kcal/mol

SAGGSAGGSAGSMDSLPMPQVTPKVVELNVPPEEAEKLKKELGAKEIKFSPEGKLIIYLESAGGSAGGSAGG [r11_64_JUSTAS]
folding stability dG unfold [1]: -0.353 ± 0.078 kcal/mol | folding stability dG unfold [2]: -0.453 ± 0.2 kcal/mol

SAGGSAGGSAGSMVEVTYEPDPATGGSRIVTTTRFPDRNTVTVTELDPNAGVPLETVEVESAGGSAGGSAGG [r11_676_JUSTAS]
folding stability dG unfold [1]: -0.16 ± 0.029 kcal/mol | folding stability dG unfold [2]: -0.433 ± 0.089 kcal/mol

SAGGSAGGSAGTATLELTVGGKKATATVEPDPDSPAPVVTVKVGDKPVVLNPDGTWTPADSAGGSAGGSAGG [r11_732_TrMRF]
folding stability dG unfold [1]: -0.908 ± 0.2 kcal/mol | folding stability dG unfold [2]: < -1 kcal/mol

SAGGSAGGSAGVKRIKDVRNPNGNKIRDVEVEEENDPNGNKYLTIKARHKNGNEQEHTLPSAGGSAGGSAGG [r11_810_TrROS]
folding stability dG unfold [1]: 0.568 ± 0.25 kcal/mol | folding stability dG unfold [2]: -0.18 ± 0.75 kcal/mol

SAGGSAGGSAGVRIPPGYLVRIKFPGNGEREIPIDTPEIEIPGIENVTIEVYPLKKGEPISAGGSAGGSAGG [r11_43_TrROS]
folding stability dG unfold [1]: 0.553 ± 0.19 kcal/mol | folding stability dG unfold [2]: 0.167 ± 0.2 kcal/mol

SAGGSAGGSAGWNIEPKPEPERDPDGNPQPRMEIKIRVPPPTAEQAQEWAKENGLPVTVYSAGGSAGGSAGG [r17_114_TrROS]
folding stability dG unfold [1]: -0.0462 ± 0.17 kcal/mol | folding stability dG unfold [2]: < -1 kcal/mol

SAGGSAGGSAILRIKLEHPKSGKPMTWVIPPEMNIEQIADMLMEQHPNAEIKDIEWVPPNQISAGGSAGGSA [r18_242_TrROS]
folding stability dG unfold [1]: 0.3 ± 0.12 kcal/mol | folding stability dG unfold [2]: -0.0546 ± 0.097 kcal/mol

SAGGSAGGSAKRTIFIPAEDLQKNPDNAEELAQTIAEEFNDNGKEIKIEQHPDGGVVIELKSAGGSAGGSAG [r3_75_TrROS]
folding stability dG unfold [1]: -0.3 ± 0.1 kcal/mol | folding stability dG unfold [2]: < -1 kcal/mol

SAGGSAGGSAKSALDQMKGQKFTFYHPGGEQPVPITIEPDKDDNFVVKFPNKKPYPMPIDDISAGGSAGGSA [r18_169_TrROS]
folding stability dG unfold [1]: -1.29 ± 0.81 kcal/mol | folding stability dG unfold [2]: < -1 kcal/mol

SAGGSAGGSAMKLLETKVSRSLVPETGVVVTPVTTTTLGPGGKREVIEETEVRVLPPDAPPPSAGGSAGGSA [r18_95_JUSTAS]
folding stability dG unfold [1]: -0.625 ± 0.19 kcal/mol | folding stability dG unfold [2]: < -1 kcal/mol

SAGGSAGGSAMLTLRFELPDGSERELRLPGVTPEEAAALAAELARREGVARVEVYPPGVERSAGGSAGGSAG [r3_160_JUSTAS]
folding stability dG unfold [1]: 0.532 ± 0.26 kcal/mol | folding stability dG unfold [2]: -0.823 ± 0.44 kcal/mol

SAGGSAGGSAMPERRAAEAAAAPPPVPKVVITSPGSEEEARRIEEELRAAPGVEEVTVTVVPRLSAGGSAGG [r6_285_JUSTAS]
folding stability dG unfold [1]: 0.804 ± 0.045 kcal/mol | folding stability dG unfold [2]: 0.0774 ± 0.16 kcal/mol

SAGGSAGGSAMPLGVTTSTSTSLLPSNSRLVTETITTPGTTSTTTTLLTPPPGEVLETTTTSSAGGSAGGSA [r18_459_JUSTAS]
folding stability dG unfold [1]: 0.997 ± 0.027 kcal/mol | folding stability dG unfold [2]: 0.526 ± 0.09 kcal/mol

SAGGSAGGSAPFENLPEDAKEVEITFDPSLSEEVRKALAEELKPRIEAQGIKYKFKIVPKSNLSAGGSAGGS [r12_456_JUSTAS]
folding stability dG unfold [1]: -0.448 ± 0.59 kcal/mol | folding stability dG unfold [2]: < -1 kcal/mol

SAGGSAGGSAPGKHKTIEINGPGDVEEAVDYAKDEMPPGKPIHIRFNDEPITIPAEDAKKISAGGSAGGSAG [r3_50_TrROS]
folding stability dG unfold [1]: 0.445 ± 0.047 kcal/mol | folding stability dG unfold [2]: -0.0642 ± 0.22 kcal/mol
